1 molecule from article PMC11005723, “Development of Complementary Photo‐arginine/lysine to Promote Discovery of Arg/Lys hPTMs Interactomes” (Advanced Science, 2024) can be followed below.

Non-standard residues stand in square brackets, D forms with d. Primed or numbered codes have the meaning given here. No end group written: not given here. *: point of attachment. R(dz)″ = photo-arginine carrying a diazirine photo-crosslinker; Biotin = O=C1N[C@H]2[C@H](CS[C@H]2CCCCC(=O)*)N1

The target in the test is PHD domain of UHRF1 (UHRF1PHD). The test can be described thus: ITC; 25 °C, MicroCal PEAQ-ITC; protein in the cell titrated with 19 injections of peptide.

The term Kd denotes the concentration at which binding is half-saturated. High values mean weaker binding, low ones tighter binding. Turning to A[R(dz)″]TKQTARKSTGGK(Biotin)A-NH2 [H3K4‐R2dz (probe 1)], the dissociation constant (Kd) was 10.6 µM.
